Results taken from paper PMC6165294.

Columns and labels:
[1] = target: GST-fusion NaV1.1 IQ domain (amino acids 1909-1936) (human); test: pull-down; phosphorylation series (Figure 6, Table 3): GST-IQ on GS-4B beads as control, treated with CaMKIIT286D or with CIP, then CaM 0.07-7 uM; [Ca2+] 2 mM; two-sites Hill fit; apparent constants
[2] = target: GST-fusion NaV1.1 IQ domain dephosphorylated by CIP (human); test: as above
[3] = target: GST-fusion NaV1.1 IQ domain phosphorylated by CaMKII (human); test: as above
[4] = target: GST-fusion NaV1.1 IQ domain (amino acids 1909-1936) (human); test: pull-down; phosphorylation series (Figure 6, Table 3): GST-IQ on GS-4B beads as control, treated with CaMKIIT286D or with CIP, then CaM 0.07-7 uM; [Ca2+] 100 nM; two-sites Hill fit; apparent constants
[5] = target: GST-fusion NaV1.1 IQ domain dephosphorylated by CIP (human); test: as above
[6] = target: GST-fusion NaV1.1 IQ domain phosphorylated by CaMKII (human); test: as above
[7] = target: GST-fusion NaV1.1 IQ domain (amino acids 1909-1936) (human); test: pull-down; phosphorylation series (Figure 6, Table 3): GST-IQ on GS-4B beads as control, treated with CaMKIIT286D or with CIP, then CaM 0.07-7 uM; [Ca2+] 500 nM; two-sites Hill fit; apparent constants
[8] = target: GST-fusion NaV1.1 IQ domain dephosphorylated by CIP (human); test: as above
[9] = target: GST-fusion NaV1.1 IQ domain phosphorylated by CaMKII (human); test: as above
[10] = target: GST-fusion NaV1.1 IQ domain (amino acids 1909-1936) (human); test: pull-down; phosphorylation series (Figure 6, Table 3): GST-IQ on GS-4B beads as control, treated with CaMKIIT286D or with CIP, then CaM 0.07-7 uM; [Ca2+] ≈ free; two-sites Hill fit; apparent constants
[11] = target: GST-fusion NaV1.1 IQ domain dephosphorylated by CIP (human); test: as above
[12] = target: GST-fusion NaV1.1 IQ domain phosphorylated by CaMKII (human); test: as above
[13] = target: GST-fusion NaV1.1 IQ domain (amino acids 1909-1936) (human); test: pull-down; GST-fusion IQ or mutant (2-4 ug) immobilised on GS-4B; CaM or mutant 0.07-7.0 uM; [Ca2+] 2 mM; 150 mM NaCl, 50 mM Tris pH 8.0, 4 h at 4 C; Coomassie densitometry, one- or two-sites Hill fit; apparent constants
[14] = target: GST-fusion NaV1.1 IQ domain (amino acids 1909-1936) (human); test: pull-down; GST-fusion IQ or mutant (2-4 ug) immobilised on GS-4B; CaM or mutant 0.07-7.0 uM; [Ca2+] 100 nM; 150 mM NaCl, 50 mM Tris pH 8.0, 4 h at 4 C; Coomassie densitometry, one- or two-sites Hill fit; apparent constants
[15] = target: GST-fusion NaV1.1 IQ domain (amino acids 1909-1936) (human); test: pull-down; GST-fusion IQ or mutant (2-4 ug) immobilised on GS-4B; CaM or mutant 0.07-7.0 uM; [Ca2+] 500 nM; 150 mM NaCl, 50 mM Tris pH 8.0, 4 h at 4 C; Coomassie densitometry, one- or two-sites Hill fit; apparent constants
[16] = target: GST-fusion NaV1.1 IQ domain (amino acids 1909-1936) (human); test: pull-down; GST-fusion IQ or mutant (2-4 ug) immobilised on GS-4B; CaM or mutant 0.07-7.0 uM; [Ca2+] ≈ free; 150 mM NaCl, 50 mM Tris pH 8.0, 4 h at 4 C; Coomassie densitometry, one- or two-sites Hill fit; apparent constants

“calmodulin (CaM), human, wild type (from UniProt P0DP23 1-149) (natural protein)” was tested, and the Kd2 (site 2 of the two-sites fit) [1] was 1.1 µM, the Kd1 (site 1 of the two-sites fit) [2] was 0.0383 µM and the Kd2 (site 2 of the two-sites fit) [2] was 2.01 µM. It also gave a Kd1 (site 1 of the two-sites fit) [3] of 0.0473 µM, a Kd2 (site 2 of the two-sites fit) [3] of 1.95 µM and a Kd2 (site 2 of the two-sites fit) [4] of 3.09 µM. It also gave a Kd1 (site 1 of the two-sites fit) [5] of 0.0365 µM, a Kd2 (site 2 of the two-sites fit) [5] of 1.42 µM and a Kd1 (site 1 of the two-sites fit) [6] of 0.0251 µM. It also gave a Kd2 (site 2 of the two-sites fit) [6] of 3.03 µM, a Kd2 (site 2 of the two-sites fit) [7] of 5.04 µM and a Kd2 (site 2 of the two-sites fit) [8] of 3.95 µM. For the same substance, the Kd1 (site 1 of the two-sites fit) [9] was 0.013 µM, the Kd2 (site 2 of the two-sites fit) [9] was 8.17 µM and the Kd1 (site 1 of the two-sites fit) [10] was 0.0376 µM. The Kd2 (site 2 of the two-sites fit) [10] was 2.49 µM, the Kd1 (site 1 of the two-sites fit) [11] was 0.0371 µM and the Kd2 (site 2 of the two-sites fit) [11] was 2.03 µM. It also gave a Kd1 (site 1 of the two-sites fit) [12] of 0.0361 µM, a Kd2 (site 2 of the two-sites fit) [12] of 1.44 µM and a Kd1 (site 1 of the two-sites fit) [13] of 0.0682 µM. It also gave a Kd2 (site 2 of the two-sites fit) [13] of 0.559 µM, a Kd1 (site 1 of the two-sites fit) [14] of 0.063 µM and a Kd2 (site 2 of the two-sites fit) [14] of 2.91 µM. It also gave a Kd1 (site 1 of the two-sites fit) [15] of 0.0433 µM and a Kd2 (site 2 of the two-sites fit) [16] of 4.58 µM.
